For assay [1], the target named is SIRPα V6 fusion Fc (mouse IgG2a) (human; mouse). The experiment in a line: ELISA, plate coated with SIRPα V6-Fc (mouse IgG2a), anti-hFab secondary, OD450. A general note: In an ELISA, binding on a coated surface is turned into a signal by an enzyme label.
For assay [2], the target named is SIRPα V2 fusion Fc (mouse IgG2a) (human; mouse). The experiment in a line: ELISA, plate coated with SIRPα V2-Fc (mouse IgG2a), anti-hFab secondary, OD450; fit value of a flat curve, see non_binding.
SIRPα V2 fusion Fc (mouse IgG2a) (human; mouse), sequence (chain, as listed by the source limits assumed): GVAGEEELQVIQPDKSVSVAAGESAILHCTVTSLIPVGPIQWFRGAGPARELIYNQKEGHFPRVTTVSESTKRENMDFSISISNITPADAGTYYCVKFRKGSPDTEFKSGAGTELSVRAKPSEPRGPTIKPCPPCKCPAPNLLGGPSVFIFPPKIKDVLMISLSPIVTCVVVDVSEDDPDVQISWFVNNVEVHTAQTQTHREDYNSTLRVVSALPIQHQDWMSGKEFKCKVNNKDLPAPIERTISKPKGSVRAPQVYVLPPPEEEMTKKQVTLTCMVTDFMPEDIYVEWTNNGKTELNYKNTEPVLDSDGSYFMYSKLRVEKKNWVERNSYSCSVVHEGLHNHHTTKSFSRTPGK
Assay [3] deals with SIRPα V10 fusion Fc (mouse IgG2a) (human; mouse). As to the kind of experiment: ELISA, plate coated with SIRPα V10-Fc (mouse IgG2a), anti-hFab secondary, OD450; fit value of a flat curve, see non_binding.
SIRPα V10 fusion Fc (mouse IgG2a) (human; mouse), sequence (chain, as listed by the source limits assumed): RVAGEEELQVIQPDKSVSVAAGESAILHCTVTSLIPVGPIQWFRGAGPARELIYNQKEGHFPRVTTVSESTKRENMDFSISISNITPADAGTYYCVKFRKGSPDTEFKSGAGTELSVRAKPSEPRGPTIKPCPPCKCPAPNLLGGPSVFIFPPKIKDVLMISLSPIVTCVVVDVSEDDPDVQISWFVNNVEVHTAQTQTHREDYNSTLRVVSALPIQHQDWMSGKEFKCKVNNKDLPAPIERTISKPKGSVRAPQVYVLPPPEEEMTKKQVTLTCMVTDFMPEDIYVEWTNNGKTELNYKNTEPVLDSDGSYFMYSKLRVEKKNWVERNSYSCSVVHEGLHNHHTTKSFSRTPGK
Assay [4] concerns the target SIRPα V4 fusion Fc (mouse IgG2a) (human; mouse). As to the kind of experiment: ELISA, plate coated with SIRPα V4-Fc (mouse IgG2a), anti-hFab secondary, OD450.
The target of assay [5] is SIRPα V9 fusion Fc (mouse IgG2a) (human; mouse). As to the kind of experiment: ELISA, plate coated with SIRPα V9-Fc (mouse IgG2a), anti-hFab secondary, OD450.
SIRPα V9 fusion Fc (mouse IgG2a) (human; mouse), sequence (chain, as listed by the source limits assumed): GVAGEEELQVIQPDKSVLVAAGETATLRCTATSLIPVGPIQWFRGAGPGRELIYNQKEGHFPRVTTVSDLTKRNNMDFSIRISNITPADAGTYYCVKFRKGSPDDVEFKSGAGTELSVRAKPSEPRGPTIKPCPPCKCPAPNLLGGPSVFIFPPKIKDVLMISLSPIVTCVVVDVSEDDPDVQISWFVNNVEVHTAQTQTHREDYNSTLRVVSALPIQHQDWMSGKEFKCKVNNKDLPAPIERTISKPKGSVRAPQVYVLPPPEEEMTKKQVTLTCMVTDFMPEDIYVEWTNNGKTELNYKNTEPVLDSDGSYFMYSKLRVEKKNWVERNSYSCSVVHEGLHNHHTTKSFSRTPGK
Assay [6] has as its target SIRPα V5 fusion Fc (mouse IgG2a) (human; mouse). The experiment in a line: ELISA, plate coated with SIRPα V5-Fc (mouse IgG2a), anti-hFab secondary, OD450; unit from the axis Log(Conc.(nM)).
Assay [7] concerns the target SIRPα V1 fusion Fc (mouse IgG2a) (human; mouse). As to the kind of experiment: ELISA, plate coated with SIRPα V1-Fc (mouse IgG2a), anti-hFab secondary, OD450; unit from the axis Log(Conc.(nM)).

Experimental findings from patent US20240018255A1 are described below.

Broadly, the EC50 (read off the curve) is the midpoint of the concentration-response curve. Lower therefore signals a more potent agent. A word on the EC50: it is the concentration needed to bring the measured effect to its halfway point. Low values mean a more potent agent, high ones a less potent agent.

SIRPα V4 fusion Fc (mouse IgG2a) (human; mouse), sequence (chain, as listed by the source limits assumed): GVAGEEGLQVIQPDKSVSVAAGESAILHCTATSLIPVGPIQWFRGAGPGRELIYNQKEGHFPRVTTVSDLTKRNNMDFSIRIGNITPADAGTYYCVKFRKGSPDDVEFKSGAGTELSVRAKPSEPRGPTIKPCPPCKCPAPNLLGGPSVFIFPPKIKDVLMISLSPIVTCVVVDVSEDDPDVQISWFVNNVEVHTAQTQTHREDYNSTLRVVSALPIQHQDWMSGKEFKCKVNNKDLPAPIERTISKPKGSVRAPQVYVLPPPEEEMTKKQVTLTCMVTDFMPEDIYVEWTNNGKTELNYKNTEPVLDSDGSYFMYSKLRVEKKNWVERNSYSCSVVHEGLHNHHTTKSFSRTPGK
SIRPα V1 fusion Fc (mouse IgG2a) (human; mouse), sequence (chain, as listed by the source limits assumed): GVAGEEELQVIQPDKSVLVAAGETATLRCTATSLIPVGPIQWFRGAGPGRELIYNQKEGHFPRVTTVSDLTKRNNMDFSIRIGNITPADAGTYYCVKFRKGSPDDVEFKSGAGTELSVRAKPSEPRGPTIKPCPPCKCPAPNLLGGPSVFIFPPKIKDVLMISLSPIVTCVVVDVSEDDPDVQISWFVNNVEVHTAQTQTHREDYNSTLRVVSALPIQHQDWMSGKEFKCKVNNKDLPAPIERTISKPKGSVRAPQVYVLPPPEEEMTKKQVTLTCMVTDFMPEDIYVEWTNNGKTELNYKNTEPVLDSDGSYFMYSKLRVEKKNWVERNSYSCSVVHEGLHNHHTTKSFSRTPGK
SIRPα V6 fusion Fc (mouse IgG2a) (human; mouse), sequence (chain, as listed by the source limits assumed): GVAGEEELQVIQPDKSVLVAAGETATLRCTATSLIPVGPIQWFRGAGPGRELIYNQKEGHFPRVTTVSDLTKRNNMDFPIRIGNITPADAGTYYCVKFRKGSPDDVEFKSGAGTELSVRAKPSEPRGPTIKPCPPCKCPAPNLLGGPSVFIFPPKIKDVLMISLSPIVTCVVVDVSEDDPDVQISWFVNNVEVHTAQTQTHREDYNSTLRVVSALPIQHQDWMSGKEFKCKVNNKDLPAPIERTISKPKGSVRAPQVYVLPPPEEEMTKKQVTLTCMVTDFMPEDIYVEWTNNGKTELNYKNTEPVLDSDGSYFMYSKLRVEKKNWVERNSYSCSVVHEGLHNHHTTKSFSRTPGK
SIRPα V5 fusion Fc (mouse IgG2a) (human; mouse), sequence (chain, as listed by the source limits assumed): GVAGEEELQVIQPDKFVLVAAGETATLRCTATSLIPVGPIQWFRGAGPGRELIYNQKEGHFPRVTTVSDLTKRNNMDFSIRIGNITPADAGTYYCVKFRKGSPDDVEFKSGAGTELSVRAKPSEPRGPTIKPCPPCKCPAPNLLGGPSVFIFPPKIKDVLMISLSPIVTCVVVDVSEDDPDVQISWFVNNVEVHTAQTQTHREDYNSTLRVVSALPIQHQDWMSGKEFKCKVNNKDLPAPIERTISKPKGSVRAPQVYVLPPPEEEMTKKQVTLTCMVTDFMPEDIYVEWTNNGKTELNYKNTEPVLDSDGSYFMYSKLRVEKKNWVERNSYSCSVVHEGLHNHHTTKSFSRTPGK

B1: anti-SIRPα antibody 18D5 of OSE Company (antibody, from a related filing, V domains shown)
VH: QVQLQQPGAELVRPGSSVKLSCKASGYTFTSYWVHWVKQRPIQGLEWIGNIDPSDSDTHYNQKFKDKASLTVDKSSSTAYMQLSSLTFEDSAVYYCVRGGTGTMAWFAYWGQGTLVTVSA
VL: DVVMTQTPLSLPVSLGDQASISCRSSQSLVHSYGNTYLYWYLQKPGQSPKLLIYRVSNRFSGVPDRFSGSGSGTDFTLKISRVEAEDLGVYFCFQGTHVPYTFGSGTKLEIKR
Consider B1, for which the values for the EC50 (read off the curve) in assay [1], in assay [4] and in assay [5] were 0.1 nM, 0.1 nM and 0.2 nM, respectively. Also, the 50% effective concentration (EC50) in assay [2] came to 0.0554 nM; in assay [3], 0.0554 nM; in assay [6] it was 0.13 nM; in assay [7] it was 0.154 nM.
